Measurements reported in publication PMC2629542.

Target: DraE R86G (E. coli)
Assay: SPR

For N-domain of CEA (domain or fragment), the fold decrease in affinity against DraE was greater than 7 fold.
